Experimental data from patent US20030166162A1.

Target: thrombin
Experiment: cell-based or functional assay

Chain of GST (Glutathion-S-transferase) expressed from pGEX-4T-3 (P08515 whole entry): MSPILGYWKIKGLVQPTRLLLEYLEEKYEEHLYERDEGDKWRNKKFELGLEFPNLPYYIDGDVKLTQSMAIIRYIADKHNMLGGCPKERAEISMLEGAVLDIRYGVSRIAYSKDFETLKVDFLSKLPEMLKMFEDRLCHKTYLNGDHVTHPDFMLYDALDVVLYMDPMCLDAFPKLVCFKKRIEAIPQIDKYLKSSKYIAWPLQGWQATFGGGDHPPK

| Substance | thrombin activity, delta Abs (405 nm)/2 min, Test 1; sample C: pH 2.0 + 2 ug chymosin (Abs (405 nm)/2 min) | thrombin activity, delta Abs (405 nm)/2 min, Test 1; sample E: pH 4.5 + 2 ug chymosin (Abs (405 nm)/2 min) | thrombin activity, delta Abs (405 nm)/2 min, Test 2; sample C: pH 2.0 + 2 ug chymosin (Abs (405 nm)/2 min) | thrombin activity, delta Abs (405 nm)/2 min, Test 2; sample E: pH 4.5 + 2 ug chymosin (Abs (405 nm)/2 min) | also measured |
| --- | --- | --- | --- | --- | --- |
| GST (Glutathion-S-transferase) expressed from pGEX-4T-3 (from UniProt P08515 1-218) | 0.063 | 0.087 | 0.073 | 0.087 | thrombin activity, delta Abs (405 nm)/2 min, Test 1; sample A: supernatant + water (Abs (405 nm)/2 min): 0.087; thrombin activity, delta Abs (405 nm)/2 min, Test 1; sample B: pH 2.0 (Abs (405 nm)/2 min): 0.082; thrombin activity, delta Abs (405 nm)/2 min, Test 1; sample D: pH 4.5 (Abs (405 nm)/2 min): 0.087; thrombin activity, delta Abs (405 nm)/2 min, Test 2; sample A: supernatant + water (Abs (405 nm)/2 min): 0.082; thrombin activity, delta Abs (405 nm)/2 min, Test 2; sample B: pH 2.0 (Abs (405 nm)/2 min): 0.073; thrombin activity, delta Abs (405 nm)/2 min, Test 2; sample D: pH 4.5 (Abs (405 nm)/2 min): 0.086 |
| Hirudin 2 ug (positive control of Table 1) | – | – | – | – | thrombin activity, delta Abs (405 nm)/2 min, Test 1; Hirudin 2 ug (Abs (405 nm)/2 min): 0.0001; thrombin activity, delta Abs (405 nm)/2 min, Test 2; Hirudin 2 ug (Abs (405 nm)/2 min): 0.0001 |
| cleavage product of GST-Pro-Hirudin treated at pH 2.0 with 2 ug chymosin | 0.066 | – | 0.07 | – | – |
| hirudin released from GST-Pro-Hirudin by treatment at pH 4.5 with 2 ug chymosin (from UniProt P01050 1-65) | – | 0.0002 | – | 0.0001 | – |
